Results from patent US20180311331A1, “PROGNOSIS AND TREATMENT OF SQUAMOUS CELL CARCINOMAS” (THE REGENTS OF THE UNIVERSITY OF COLORADO, a body corporate, priority 2015, published 2018).

Tests used:
MDSCs = conditions: without any effect on B and T cells, NK cells, or macrophages; cited from earlier work
[1] = system: myeloid-derived suppressor cells (MDSC); test: MDSC abundance by flow cytometry in tumor and spleen of Rag1-/- mice; format: in vivo, mouse; conditions: mice injected with MOE/E6E7 cells re-expressing Cxcl14 vs empty vector, 23 days post injection
Procedure: MOE/E6E7 cell clones expressing Cxcl14 (8 and 16) and one vector containing MOE/E6E7 cell clone were injected into Rag1−/− mice (n=4, each group). Tumor (A) and spleen (B) were harvested at 23 days post injection, homogenized, and analyzed by flow cytometry. Relative abundance of MDSC cells (A & B) was determined using anti-MHCII, anti-Gr1, and anti-CD11b+ antibodies.
The chemokine receptors CXCR1 and CXCR2 are of primary importance for the migration of granulocytes to sites of inflammation. A recent study has shown that CXCR2 is also required for MDSC infiltration into tumors for cancer development. Additionally, blocking CXCR2-mediated MDSC infiltration enhances efficacy of anti-PD1 therapy. […] Thus, it is likely that CXCR2 ligands produced by HNSCC cells recruit MDSCs into the TME, and that CXCL14 expression interferes with IL-8 mediated MDSC infiltration. Thus, it will be verified that CXCL14 expression in HPV+ HNSCC cells reverses the immunosuppressive microenvironment by inhibiting Cxcr2-mediated MDSC expansion and infiltration. These experiments will determine novel mechanisms by which downregulation of CXCL14 triggers immune suppression in the TME.

MOE/E6E7 cells [2] = test: Tumor growth and survival after injection of MOE/E6E7 cells expressing Cxcl14 into Rag1-/- B6 mice; format: in vivo, mouse
Procedure: (§1) Two MOE/E6E7 cell clones expressing Cxcl14 (clones 8 and 16) and one vector containing MOE/E6E7 cell clone were injected into the rear right flank of wildtype (A & B) and Rag1−/− (C & D) B6 mice (n=10, each group of wildtype; n=7, each group of Rag1−/). (A & C) Tumor growth was determined every week by the formula: volume=(width) 2×length. Survival rates were analyzed using a Kaplan-Meier estimator. (B & D) Time-to-event was determined for each group (vector only, Cxcl14-clone 8, Cxcl14-clone 16) with the event being tumor burden larger than 2,500 mm3. Deaths not associated with tumor were censored. P-values were determined by the Log-rank test.
(§2) CXCL14 is an evolutionary-conserved chemokine showing 98% homology between human CXCL14 and murine Cxcl14. […] To characterize immune cell infiltration regulated by Cxcl14 expression, the inventors analyzed various immune cells in tumor tissue, tumor draining lymph node (TDLN), and in spleen harvested from the wildtype B6 mice at 21 days after injection with a control or with Cxcl14 expressing MOE/E6E7 cells. […]
(§3) To determine whether CXCL14 affects tumor growth in vivo, the inventors utilized an HNSCC mouse model with MOE/E6E7 cells that form tumors in immunocompetent syngeneic mice. […] Next, the inventors determined whether CXCL14 directly induces chemotaxis of CD8^+ T and NK cells using the Transwell system and splenocytes isolated from B6 mice.

[3] = system: splenocytes isolated from B6 mice; test: In vitro migration assay using the Transwell system; format: cell-based, mouse
Procedure: MOE cells with Cxcl14 or vector were cultured on the bottom chamber of a Transwell. Splenocytes were added to the upper chamber. After 12 hr incubation, migrated splenocytes to the bottom chamber were collected and analyzed by flow cytometry.
as §2, with “murine Cxcl14. To determine whether CXCL14 affects tumor growth in vivo, the inventors studied mouse oropharyngeal epithelial cells (MOE/E6E7) that form tumors in immunocompetent syngeneic C57BL/6 (B6) mice. […] To test tumor suppressor functions of CXCL14, the inventors established MOE/E6E7 cell lines that re-expressed their physiological levels of” for “murine”
as §3

[4] = system: CD8+ T, NK and Treg cells; test: Immune cell populations by flow cytometry in wildtype B6 mice bearing Cxcl14-expressing MOE/E6E7 cells; format: in vivo, mouse
Procedure: MOE/E6E7 cells with Cxcl14 (clones #8 and #16) or vector were injected into the right flank of B6 mice (n=3, each group). Tumor (A) and lymph nodes (B) tissues were harvested at 21 days post injection. Percentage of immune cell populations was determined by flow cytometry.
MOE/E6E7 cell clones expressing Cxcl14 (8 and 16) and one vector containing MOE/E6E7 cell clone were injected into the rear right flank of B6 mice (n=3, each group). Spleen was harvested at 21 days post injection and analyzed by flow cytometry. Relative abundance of Treg cells was determined using anti-CD4 and CD25 antibodies.
as §2, with “murine Cxcl14. To determine whether CXCL14 affects tumor growth in vivo, the inventors studied mouse oropharyngeal epithelial cells (MOE/E6E7) that form tumors in immunocompetent syngeneic C57BL/6 (B6) mice. […] To test tumor suppressor functions of CXCL14, the inventors established MOE/E6E7 cell lines that re-expressed their physiological levels of” for “murine”

MOE/E6E7 cells [5] = test: Tumor growth and survival after injection of MOE/E6E7 cells expressing Cxcl14 into wildtype B6 mice; format: in vivo, mouse; conditions: wildtype B6 mice injected with MOE/E6E7 cells expressing Cxcl14
Procedure: as §1, §2, §3

IL-8 = biological target: T1, IL-8 (Homo sapiens, UniProt P10145); conditions: another study; cited from earlier work
T1 sequence (P10145 21-99): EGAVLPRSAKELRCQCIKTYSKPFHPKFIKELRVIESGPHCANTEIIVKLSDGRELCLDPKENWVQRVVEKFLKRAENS

Nc1ccn([C@@H]2O[C@H](CO)[C@@H](O)C2(F)F)c(=O)n1 [gemcitabine]
MDSC elimination in tumor-bearing mice (MDSCs): selectively eliminates MDSCs through apoptosis

B1: Cxcl14: chemokine, approximately 9.5 kD secreted protein; tested by re-expression in MOE/E6E7 tumor cells (clones 8 and 16) (protein, UniProt Q9WUQ5 23-99, looked up)
C-X-C motif chemokine 14: SKCKCSRKGPKIRYSDVKKLEMKPKYPHCEEKMVIVTTKSMSRYRGQEHCLHPKLQSTKRFIKWYNAWNEKRRVYEE
MDSCs in tumors and spleens [1]: significantly decreased | Time to succumb to tumor burden (MOE/E6E7 cells [2]; Rag1-/- B6 mice injected with MOE/E6E7 cells re-expressing Cxcl14): ≤ 32 days post injection | Tumor growth (MOE/E6E7 cells [2]; Rag1-/- mice injected with Cxcl14 expressing MOE/E6E7 cells): delayed tumor growth | Migration of CD8+ T and NK cells to Cxcl14 expressing HNSCC cells ([3]; 12 hr incubation, compared to vector containing HNSCC cells): 3-4 fold | Migration of macrophages and CD4+ T cells ([3]; CXCL14 expressing MOE/E6E7 cells, splenocytes from B6 mice): little effect | Treg cells in spleens ([4]; B6 mice with tumors re-expressing Cxcl14, 21 days post injection): significantly decreased | Percentages of CD8+ T and NK cells in tumor tissues and TDLNs ([4]; wildtype B6 mice, 21 days after injection, vs vector containing cells): highly increased | Tumor clearance (MOE/E6E7 cells [5]): a majority of B6 mice injected with MOE/E6E7 cells expressing Cxcl14 cleared tumors | Binding to IL-8 (IL-8): directly binds to IL-8
